Experimental data taken from patent US20210230266A1 (SINGAPORE HEALTH SERVICES PTE, published 2021).
Residue numbers refer to the chain shown, from its start.

T1: Mouse IL-11 (mouse, UniProt P47873 22-199, limits assumed)
T1 construct: also called murine IL-11; recombinant murine IL-11
T1 sequence (looked up): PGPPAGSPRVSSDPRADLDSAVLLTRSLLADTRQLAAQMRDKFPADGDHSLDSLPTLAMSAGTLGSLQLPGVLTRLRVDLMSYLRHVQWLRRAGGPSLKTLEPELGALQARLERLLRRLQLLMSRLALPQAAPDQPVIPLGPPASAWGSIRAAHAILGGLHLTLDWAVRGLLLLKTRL

T2: Human IL-11 (human, UniProt P20809 22-199)
T2 construct: Recombinant human IL-11 (GenScript Cat. No. Z03108-1) or IL-11 secreted by human cells; the mature form is said to have 178 residues; also called recombinant human IL-11; endogenously produced IL-11
T2 sequence: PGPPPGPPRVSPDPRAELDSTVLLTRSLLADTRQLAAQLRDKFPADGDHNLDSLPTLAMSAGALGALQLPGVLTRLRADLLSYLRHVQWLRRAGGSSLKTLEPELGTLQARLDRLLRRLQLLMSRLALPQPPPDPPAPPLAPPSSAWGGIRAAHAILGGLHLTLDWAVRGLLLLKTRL

B1: YU100-D02 (antibody)
chain: QVRLVQSGGGVVQPGRSLRLSCAASGFTFSSYGMHWVRQAPGKGLEWVAVISYDGSNKYYADSVKGRFTISRDNSKNTLYLQMNSLRAEDTAVYYCAKIGATDPLDYWGQGTLVTVSSGSASAPKLEEGEFSEARVQSALTQPRSVSGSPGQSVTISCTGTSGDVGTYNYVSWYQQHPGKAPKLMIFDVSKRPSGVPDRFSGSKSGNTASLTISGLQAEDEADYYCNSYAGSYTWVFGGGTKLTVLGQPKAAPSVTLFPPSS
B2: YU100-E05 (antibody)
chain: B1 chain with Q1E, R3Q, S138A, A139V, G163S, T167G, F187Y, N227C, T234S
B3: YU100-D11 (antibody)
chain: B1 chain with R3Q, G163S, D164N, T167G, F187Y, D223N, N227A, S232N, T234N
B4: YU100-E04 (antibody)
chain: QVQLQQSGGGVVQPGRSLRLSCAASGFTFSSYGMHWVRQAPGKGLEWVAVISYDGSNKYYADSVKGRFTISRDNSKNTLYLQMNSLRAEDTAVYYCAKIGATDPLDYWGQGTLVTVSSGSASAPKLEEGEFSEARVQSALTQPRSVSGSPGQSVTISCTGTSSDVGGYNYVSWYQQHPGKTPKLMIYDVTKRPSGVPDHFSGSKSGNTASLTISGLQAEDEADYYCCSYAGSHIWVFGGGTKLTVLGQPKAAPSVTLFPPSS
B5: YU100-E06 (antibody)
chain: QVQLVESGGGVVQPGRSLRLSCAASGFTFSSYGMHWVRQAPGKGLEWVAVISYDGSNKYYADSVKGRFTISRDNSKNTLYLQMNSLRAEDTAVYYCAKIGATDPLDYWGQGTLVTVSSGSASAPKLEEGEFSEARVQSALTQPASVSGFPEQSITISCTGTSSDVGGYDYVSWYQQHPGKAPKLMIYDVTNRPSGVSNRFSGSKSGNTASLTISGLQPEDEADYYCSSYTSNTTWVFGGGTKLTVLRQPKAAPSVTLFPPSS
B6: YU100-D05 (antibody)
chain: QVQLQQSGGGVVQPGRSLRLSCAASGFTFSSYGMHWVRQAPGKGLEWVAVISYDGSNKYYADSVKGRFTISRDNSKNTLYLQMNSLRAEDTAVYYCAKIGATDPLDYWGQGTLVTVSSGSASAPKLEEGEFSEARVQSALTQPASVSGSPGQLITISCTGTNSDVGGYNYVSWYQQHPGKAPKLMIYDVSNRPSGVSNRFSGSKSGNTASLTISGLQAEDEADYYCCSYAGSYTWVFGGGTKLTVLGQPKAAPSVTLFPPSS
B7: YU100-E01 (antibody)
chain: QVQLQQSGGGVVQPGRSLRLSCAASGFTFSSYGMHWVRQAPGKGLEWVAVISYDGSNKYYADSVKGRFTISRDNSKNTLYLQMNSLRAEDTAVYYCAKIGATDPLDYWGQGTLVTVSSGSASAPKLEEGEFSEARVQSALTQPASVSGSPGQSITISCTGTSNDIGAYNYVSWYQQHPGKAPKLLIYDVNNRPSGVSDRFSGSKSGNTASLTISGLQAEDEADYYCCSYAGSYSWVFGGGTKLTVLGQPKANPTVTLFPPSS
B8: YU112-E07 (antibody)
chain: QVQLVQSGGGVVQPGRSLRLSCAASGFTFGSYGMHWVRQAPGKGLEWVAVISYDGSNKYYADSVKGRFTISRDNSKNTLYLQMNSLRAEDTAVYYCAKGSYYFDYWGQGTLVTVSSGSASAPKLEEGEFSEARVEIVMTQSPDSLAVSLGERATINCKSSQSVNSAYLAWYQHKPGQPPRLLIYGASRRVTGVPDRFSGSGSGTDFTLTISSLQPEDFATYYCQQSYSDPRWTFGQGTKVEIK
B9: 02G (antibody, IgG1, V domains shown)
VH: QVQLVQSGGGVVQPGRSLRLSCAASGFTFSSYGMHWVRQAPGKGLEWVAVISYDGSNKYYADSVKGRFTISRDNSKNTLYLQMNSLRAEDTAVYYCAKIGATDPLDYWGQGTLVTVSS
VL: QSALTQPRSVSGSPGQSVTLSCTGTSSDVGGYNYVSWYQHYPGKAPKLMIFDVNERSSGVPDRFSGSKSGNTASLTISGLQAEDEADYYCGSYAGRYTWMFGGGTKVTVLG
notes: C91G variant of the YU100-G08 VL
B10: 02I (antibody, IgG1, V domains shown)
VH: B9 VH
VL: B9 VL with G91I
notes: C91I variant of the YU100-G08 VL
B11: 02T (antibody, IgG1, V domains shown)
VH: B9 VH
VL: B9 VL with G91T
notes: C91T variant of the YU100-G08 VL
B12: 02Q (antibody, IgG1, V domains shown)
VH: B9 VH
VL: B9 VL with G91Q
notes: C91Q variant of the YU100-G08 VL
B13: 02L (antibody, IgG1, V domains shown)
VH: B9 VH
VL: B9 VL with G91L
notes: C91L variant of the YU100-G08 VL
B14: 02V (antibody, IgG1, V domains shown)
VH: B9 VH
VL: B9 VL with G91V
notes: C91V variant of the YU100-G08 VL
B15: YU100-G08_02A (antibody, V domains shown)
VH: B9 VH
VL: B9 VL with G91A
notes: C91A variant of the YU100-G08 VL
B16: 02S (antibody, IgG1, V domains shown)
VH: B9 VH
VL: B9 VL with G91S
notes: C91S variant of the YU100-G08 VL

Target: T1, Mouse IL-11
Assay: ELISA
Procedure: (§1) The soluble scFv were produced by recombinant expression in E. coli, and analysed for their ability to bind to human IL-11 and murine IL-11 by ELISA. Briefly, the respective antigen was coated to wells of an ELISA plate, the cell culture supernatant containing the respective scFv was added at a 1:2 dilution, and binding was detected.

| Binder | mIL11 - average signal |
| --- | --- |
| B1 | 0.346 |
| B2 | 0.275 |
| B3 | 0.475 |
| B4 | 0.472 |
| B5 | 0.309 |
| B6 | 0.284 |
| B7 | 0.238 |
| B8 | 0.561 |

Target: T2, Human IL-11
Assay: ELISA
Procedure: as §1

| Binder | hIL11 - average signal |
| --- | --- |
| B1 | 0.268 |
| B2 | 0.16 |
| B3 | 0.447 |
| B4 | 0.36 |
| B5 | 0.173 |
| B6 | 0.223 |
| B7 | 0.207 |
| B8 | 0.71 |

Target: T2, Human IL-11
Assay: SPR (BIAcore T200) single cycle kinetics, human IL-11 on CM5 chip, 1:1 model
Source text: HEK293 EBNDA cells were transfected with vectors encoding scFv corresponding to YU100-H01, 01A, 01G, 01I, 01L, 01Q, 01S, 01T, 01V, YU100-G08, 02A, 02G, 02I, 02L, 02Q, 02S, 02T or 02V.

| Binder | Kd [nM] | koff [s⁻¹] | kon [M⁻¹ s⁻¹] |
| --- | --- | --- | --- |
| B9 | 1980 | 0.0537 | 27200 |
| B10 | 2.89 | 0.00238 | 825000 |
| B11 | 35 | 0.00207 | 59200 |
| B12 | 5.84 | 0.00249 | 426000 |
| B13 | 4.36 | 0.00202 | 463000 |
| B14 | 10.4 | 0.00215 | 207000 |
| B15 | 4.46 | 0.00312 | 699000 |
| B16 | 4.99 | 0.00639 | 1.28e+06 |

Target: T2, Human IL-11
Assay: ELISA on coated recombinant human IL-11 (100 ng/well), scFv-Fc
Procedure: The light chain shuffled anti-IL-11 antibodies were analysed to determine the EC50 for binding to human IL-11 by ELISA according to standard methods. Briefly, wells of microtiter plates were coated with recombinant human IL-11 (100 ng/well), scFv-Fc comprising the VH and VL domains of the clones were added in a dilution series and antibody binding was detected using a polyclonal antibody detection system.

| Binder | EC50 [µg/mL] |
| --- | --- |
| B1 | 0.022 |
| B2 | 0.027 |
| B3 | 0.038 |
| B4 | 0.036 |
| B5 | 0.024 |
| B6 | 0.042 |
| B7 | 0.03 |
| B8 | 0.058 |

Target: T2, Human IL-11
Assay: cell-based or functional assay

| Binder | MMP2 production, Experiment 1 (human atrial fibroblasts + TGFB1) [ng/mL] | MMP2 production, Experiment 2 (human atrial fibroblasts + TGFB1) [ng/mL] |
| --- | --- | --- |
| B1 | 49.6 | 42.2 |
| B2 | 56.3 | 50.2 |
| B3 | 51.2 | 47.2 |
| B4 | 50 | 43.5 |
| B5 | 54.1 | 48.2 |
| B6 | 53.3 | 48.8 |
| B7 | 59.3 | 51.8 |
| B8 | 53.5 | 49.1 |
